{
  "source": "paper PMC2639635",
  "about": "“The Structure of Phosphorylase Kinase Holoenzyme at 9.9 Å Resolution and Location of the Catalytic Subunit and the Substrate Glycogen Phosphorylase” (Structure(London, England:1993), 2009)",
  "binders": {"B1": {"name": "phosphorylase kinase γ subunit (catalytic subunit) (natural protein)", "chain": "not shown", "notes": "phosphorylase kinase γ subunit, catalytic; also called γ catalytic subunit; γ kinase subunit; source: purified from rabbit fast-twitch skeletal muscle as part of the PhK holoenzyme"}, "B2": {"name": "phosphorylase kinase β subunit (natural protein, rabbit (endogenous in skeletal muscle), UniProt P12798 1-1093, looked up)", "chain": "MAGATGLMAEVSWKVLERRARTKRSGSVYEPLKSINLPRPDNETLWDKLDYYYKIVKSTLLLYQSPTTGLFPTKTCGGDQTAKIHDSLYCAAGAWALALAYRRIDDDKGRTHELEHSAIKCMRGILYCYMRQADKVQQFKQDPRPTTCLHSLFNVHTGDELLSYEEYGHLQINAVSLYLLYLVEMISSGLQIIYNTDEVSFIQNLVFCVERVYRVPDFGVWERGSKYNNGSTELHSSSVGLAKAALEAINGFNLFGNQGCSWSVIFVDLDAHNRNRQTLCSLLPRESRSHNTDAALLPCISYPAFALDDDVLYNQTLDKVIRKLKGKYGFKRFLRDGYRTSLEDPKRRYYKPAEIKLFDGIECEFPIFFLYMMIDGVFRGNPKQVKEYQDLLTPVLHQTTEGYPVVPKYYYVPADFVEYEKRNPGSQKRFPSNCGRDGKLFLWGQALYIIAKLLADELISPKDIDPVQRYVPLQNQRNVSMRYSNQGPLENDLVVHVALVAESQRLQVFLNTYGIQTQTPQQVEPIQIWPQQELVKAYFHLGINEKLGLSGRPDRPIGCLGTSKIYRILGKTVVCYPIIFDLSDFYMSQDVLLLIDDIKNALQFIKQYWKMHGRPLFLVLIREDNIRGSRFNPMLDMLAALKNGMIGGVKVHVDRLQTLISGAVVEQLDFLRISDTEELPEFKSFEELEPPKHSKVKRQSSTSNAPELEQQPEVSVTEWRNKPTHEILQKLNDCSCLASQTILLGILLKREGPNFITQEGTVSDHIERLYRRAGSKKLWLAVRYGAAFTQKFSSSIAPHITTFLVHGKQVTLGAFGHEEEVISNPLSPRVIKNIIYYKCNTHDEREAVIQQELVIHIGWIISNNPELFSGMLKIRIGWIIHAMEYELQIRSGDKPAKDLYQLSPSEVKQLLLDILQPQQNGRCWLNKRQIDGSLNRTPTGFYDRVWQILERTPNGIIVAGKHLPQQPTLSDMTMYEMNFSLLVEDMLGNIDQPKYRQIVVELLMVVSIVLERNPELEFQDKVDLDKLVKEAFHEFQKDESRLKEIEKQDDMTSFYNTPPLGKRGTCSYLTKVVMNLLLEGEVKPSNEDSCLVS", "notes": "phosphorylase kinase β subunit, regulatory; printed as 125 kDa, 1092 amino acids; source: purified from rabbit fast-twitch skeletal muscle as part of the PhK holoenzyme"}},
  "conditions_in_all_cases": "both partners purified",
  "key": {"[1]": {"target": "T1, phosphorylase kinase δ subunit (intrinsic calmodulin) (rabbit (endogenous in skeletal muscle), UniProt P62160 1-149)", "T1 construct": "phosphorylase kinase δ subunit, the intrinsic calmodulin; printed as 16.7 kDa, 148 amino acids; also called δ-calmodulin subunit; calmodulin-δ-subunit; source: purified from rabbit fast-twitch skeletal muscle as part of the PhK holoenzyme", "experiment": "cryo-EM structure; PhK holoenzyme alone, subunits co-purified as the native complex from muscle; 100 mM NaCl, 0.3 mM CaCl2, 5 mM MgCl2, 50 mM HEPES pH 8.2; single-particle reconstruction at 9.9 Å; PhKγt (PDB 2PHK) fitted as a rigid body"}, "[2]": {"target": "T2, phosphorylase kinase α subunit (rabbit (endogenous in skeletal muscle), UniProt P18688 1-1237)", "T2 construct": "phosphorylase kinase α subunit, regulatory, skeletal muscle; printed as 138 kDa, 1237 amino acids; In the aged preparation used for Superdex 200 gel filtration the α subunit may have been partly proteolysed; source: purified from rabbit fast-twitch skeletal muscle as part of the PhK holoenzyme", "T2 sequence (looked up)": "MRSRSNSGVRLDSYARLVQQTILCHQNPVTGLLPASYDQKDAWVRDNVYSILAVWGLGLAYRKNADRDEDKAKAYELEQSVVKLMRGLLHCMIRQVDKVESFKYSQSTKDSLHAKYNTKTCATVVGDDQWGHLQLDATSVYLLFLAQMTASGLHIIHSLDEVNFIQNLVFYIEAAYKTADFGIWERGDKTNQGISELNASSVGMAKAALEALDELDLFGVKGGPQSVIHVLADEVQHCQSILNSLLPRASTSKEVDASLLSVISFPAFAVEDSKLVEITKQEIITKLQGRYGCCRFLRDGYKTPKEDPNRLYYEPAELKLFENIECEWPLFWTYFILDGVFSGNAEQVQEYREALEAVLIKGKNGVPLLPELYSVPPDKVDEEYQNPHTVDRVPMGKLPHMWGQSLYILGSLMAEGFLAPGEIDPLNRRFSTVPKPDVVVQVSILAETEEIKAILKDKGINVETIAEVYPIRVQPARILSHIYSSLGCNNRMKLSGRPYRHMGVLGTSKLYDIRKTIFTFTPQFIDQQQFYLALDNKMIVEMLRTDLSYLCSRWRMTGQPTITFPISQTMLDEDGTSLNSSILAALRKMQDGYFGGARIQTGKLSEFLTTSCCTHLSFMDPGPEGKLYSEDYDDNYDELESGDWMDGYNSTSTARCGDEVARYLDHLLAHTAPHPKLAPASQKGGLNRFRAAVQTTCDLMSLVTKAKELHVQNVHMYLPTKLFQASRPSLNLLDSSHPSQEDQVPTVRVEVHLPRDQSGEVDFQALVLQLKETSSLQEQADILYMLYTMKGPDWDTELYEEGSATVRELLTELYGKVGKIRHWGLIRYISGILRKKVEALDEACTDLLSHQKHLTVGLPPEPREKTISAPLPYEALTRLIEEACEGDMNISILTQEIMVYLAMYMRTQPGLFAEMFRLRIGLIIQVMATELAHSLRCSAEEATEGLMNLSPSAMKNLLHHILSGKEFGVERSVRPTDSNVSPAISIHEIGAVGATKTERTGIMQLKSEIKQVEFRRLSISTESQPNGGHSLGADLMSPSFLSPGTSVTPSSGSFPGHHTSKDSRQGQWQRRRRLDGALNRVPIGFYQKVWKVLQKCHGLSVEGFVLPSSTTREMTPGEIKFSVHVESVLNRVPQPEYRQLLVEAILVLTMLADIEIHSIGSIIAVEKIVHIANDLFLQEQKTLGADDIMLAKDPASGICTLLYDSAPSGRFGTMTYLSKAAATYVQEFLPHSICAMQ", "experiment": "cryo-EM structure; PhK holoenzyme alone, subunits co-purified as the native complex from muscle; 100 mM NaCl, 0.3 mM CaCl2, 5 mM MgCl2, 50 mM HEPES pH 8.2; single-particle reconstruction at 9.9 Å; PhKγt (PDB 2PHK) fitted as a rigid body"}, "[3]": {"target": "B2", "experiment": "cryo-EM structure; PhK holoenzyme alone, subunits co-purified as the native complex from muscle; 100 mM NaCl, 0.3 mM CaCl2, 5 mM MgCl2, 50 mM HEPES pH 8.2; single-particle reconstruction at 9.9 Å; PhKγt (PDB 2PHK) fitted as a rigid body"}, "[4]": {"target": "T2, phosphorylase kinase α subunit", "experiment": "SEC; analytical Superdex 200 gel filtration of the PhK preparation several months after purification; fractions analysed by SDS-PAGE with Coomassie staining; subunits co-purified as the native complex"}},
  "data": [
    {"binder": "B1", "values": [
      {"measurement": "binding result", "setting": "[1]", "result": "binds"},
      {"measurement": "binding result", "setting": "[2]", "result": "binds"},
      {"measurement": "binding result", "setting": "[3]", "result": "binds"}
    ]},
    {"binder": "B2", "values": [
      {"measurement": "binding result", "setting": "[4]", "result": "binds"}
    ]}
  ]
}
